# Results published in US20030124590A1, “Carbohydrate response element binding protein and uses thereof” (priority 2001, published 2003).
# No end group written: not given here.
# How the values were obtained:
# [1] = system: L-PK gene; assay: L-PK promoter luciferase reporter in ChREBP-transfected primary hepatocytes with kinase/phosphatase inhibitors or db-cAMP; conditions: for transcriptional activity of the L-PK gene in ChREBP-overexpressed hepatocytes: 5.5 and 27.5 mM glucose, 12 h, 10 μM H-89, 500 nM cantharidic acid, 5 μM KN-62, 30 μM PD98059, 50 μM Genistein
# Method: Primary hepatocytes were prepared from male Sprague-Dawley rats using the collagenase (Life Technologies, Inc.) perfusion method (Berry and Friend (1969) J Cell Bio […], 506-520) and plated in collagen-coated six-well tissue culture plates (Primaria Falcon, Franklin Lakes, N.J.) at a density of 1×10^6 cells/well in glucose-free Dulbecco's modified Eagle's medium (Life Technologies, Inc.) supplemented with 100 nM dexamethasone, 10 nM insulin, 100 units/ml penicillin, 100 μg/ml streptomycin and 10% dialyzed fetal bovine serum (Life Technologies, Inc.). Following attachment, synthetic liposomes were used to transfect hepatocytes with 0.5 μg of the luciferase reporter plasmid and 0.1 μg of the internal control plasmid pRL-TK. After 14 h the media was replaced by Dulbecco's modified Eagle medium supplemented with 100 nM dexamethasone, 10 nM insulin, 10% Fetal Bovine Serum and either 10 mM lactate, 5.5 mM glucose or 27.5 mM glucose. The cells were incubated for an additional 12 h prior to determination of luciferase activity using the Dual-Luciferase Reporter Assay System (Promega).
# Protein Kinase and Protein Phosphatase Inhibitors—Prior to exchange to 5.5 or 27.5 mM glucose medium, transfected primary culture hepatocytes were treated for 1 h with 10 μM H-89, 500 nM cantharidic acid (Calbiochem), 5 μM KN-62 (Calbiochem), 30 μM PD98059 (Calbiochem), 50 μM Genistein, or dimethylsulfoxide vehicle.
# Rat primary cultured hepatocytes were transfected a plasmid comprising a gene encoding the wild type (WT)-ChREBP. H-89, cantharidic acid, or dimethylsulfoxide vehicle was added, and the cells were incubated in 5.5 mM (□) or 27.5 mM (▪) glucose for 12 h.
# Rat primary cultured hepatocytes were transfected with wild type (WT)-ChREBP, S626A, S626D, T666A, or T666D. After transfection, the cells were incubated in 5.5 mM (□) or 27.5 mM (▪) glucose for 12 h. […] Rat primary cultured hepatocytes were transfected with wild type (WT)-ChREBP, S196A+S626A, or S196A+T666A. After transfection, cells were incubated under 5.5 mM (□) or 27.5 mM (▪) glucose, and cAMP was added both low and high glucose.
# [2] = system: T1, P3 peptide of ChREBP (amino acids #655-674), phosphorylated by PKA
# T1 sequence: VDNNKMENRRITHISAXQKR
# [3] = system: T2, P4 peptide of ChREBP (amino acids #556-573), phosphorylated by AMPK
# T2 sequence: STVPSTLLRPPESPDAVP
# [4] = system: T3, P1 peptide of ChREBP (amino acids #187-201), phosphorylated by PKA
# T3 sequence: YYKKRLRKSSREGDF
# [5] = biological target: T4, cytosolic Xu-5-P activated PPase (Rattus norvegicus, UniProt P63331); assay: Protein phosphatase assay, cytosolic Xu-5-P activated PPase of liver; assay type: biochemical; conditions: for inhibition of cytosolic Xu-5-P activated PPase (in words): okadaic acid 10 nM (absence and presence of Xu-5-P), cantharidic acid 500 nM, deltamethrin 300 nM; for Cytosol. PPase activity, +Xu5P / Cytosol. PPase activity, None: Mono Q purified, phosphorylated peptide as substrate; for Cytosol. PPase activity, None: absence of Xu-5-P
# T4 construct: from tissue; host or cells: rat liver cytosolic extract, DEAE-cellulose then Mono Q
# Method: Liver was homogenized in a motor-driven Potter-Elvehjem homogenizer in 1 volume of extraction buffer containing 10 mM Hepes (pH 7.9), 10 mM KCl, 0.1 mM EDTA, 0.74 mM spermidine, 0.25 M sucrose, 50 mM imidazole, 1 mM dithiothreitol (DTT), 4 mM phenylmethanesulfonyl fluoride, and 1 mM benzamidine, and the extract was centrifuged at 10,000×g for 30 min.
# (§1) Synthetic peptides corresponding to amino acids #187-201 ([…] “P1” peptide) (SEQ ID NO:64), #556-573 ([…], “P4” peptide) (SEQ ID NO:65), and #655-674 ([…]; “P3” peptide) (SEQ ID NO:66), of ChREBP were prepared by the Peptide Synthesis Service of University of Texas Southwestern Medical Center. These peptides were phosphorylated by 10 U of PKA for 6 h at 30° C. P4 peptide corresponding to 556-573 ([…]) (SEQ ID NO:65), was phosphorylated by 10 U of AMPK for 5 h at 30° C. The reaction mixtures were passed through on a Dowex AG1X8 column (0.5 cm×5 cm) which had been equilibrated with 30% acetic acid to remove residual [^32P]-ATP. The labeled peptides in the pass through fraction were lyophilized.
# (§2) Protein phosphatase activity was determined by the method of Deana et al (Deana et al. (1990) Biochem, Biophys. Acta. 1051: 199-202). The reaction mixture contained in a final volume of 50 μ1,20 mM MOPS, pH 7.0, 1 mM DTT, 25 μg of BSA, and ^32P-labeled substrate for 15 min at 30° C. The reaction was terminated by the addition of 10% trichloroacetic acid. Phosphate released was converted to a phosphomolybdic complex followed by organic solvent (isobutyl alcohol:heptane, 1:1) extraction of the complex. The reaction mixture was mixed thoroughly and centrifuged. An aliquot of the top layer was then added to 5 ml scintillation fluid and counted. One unit of protein phosphatase is defined as that amount which catalyzes the release of 1.0 μmol of ^32P/min at 30° C.
# (§3) These peptides were assayed with Mono Q purified cytosolic and nuclear PPases in the presence and absence of 50 μM Xu-5-P.
# [6] = biological target: T5, nuclear Xu-5-P activated PPase (Rattus norvegicus, UniProt P63331); assay: Protein phosphatase assay, nuclear Xu-5-P activated PPase of liver; assay type: biochemical; conditions: for inhibition of nuclear PPase (in words): 500 nM cantharidic acid, 300 nM deltamethrin; for Nuclear PPase activity, +Xu5P / Nuclear PPase activity, None: Mono Q purified, phosphorylated peptide as substrate; for Nuclear PPase activity, None: absence of Xu-5-P
# T5 construct: from tissue; host or cells: rat liver nuclear extract, DEAE-cellulose then Mono Q
# Method: Liver nuclear extracts were prepared as described in Example 1.
# as §1, §2, §3
# [7] = system: GFP-fused ChREBP; assay: Subcellular localization of GFP-fused ChREBP in primary hepatocytes (confocal microscopy); assay type: cell-based, rat; conditions: 12 h
# Method: Determination of Subcellular Localization of ChREBP—Subcellular localization of GFP-fused WT-ChREBP or its mutants was determined using a confocal laser scanning microscope (Bio Rad, Hercules, Calif.). In order to quantitate nuclear localization of ChREBP, for each condition, 100 transfected hepatocytes from 5 independent experiments were scored in a blinded fashion as to whether the GFP-fused ChREBP was predominantly nuclear or cytoplasmic. The identity of the nucleus was verified by comparative phase-contrast microscopy. B. Results
# Rat primary cultured hepatocytes were transfected with a plasmid comprising a gene encoding the GFP-fused wild type-ChREBP or NLS domain deletion mutants. […] The values are expressed as mean±SE. *P<0.05 compared to that of wild type-ChREBP.
# [8] = biological target: ChREBP (Carbohydrate Response Element Binding Protein) from rat liver (rat) (UniProt Q8VIP2); assay: cell-based or functional assay
# [9] = system: L-PK gene; assay: Glucose-induced L-PK transcription (luciferase) in ChREBP overexpressed hepatocytes with fatty acids or AICAR; assay type: cell-based, rat; conditions: 27.5 mM glucose
# Method: After a six h attachment period, hepatocytes were transfected using synthetic liposome (Lipofectamine 2000; Life Technologies) in Opti-MEM I reduced serum medium as described (Yamashita et al. Proc. Natl. Acad. Sci. USA 98, 9116-9121) and incubated for 12 h. As a control, hepatocytes were exposed to synthetic liposome in the same manner as each experimental group. […] The source of albumin for all studies was essentially fatty acid-free bovine serum albumin. Transfected cells were cultured for 12 h in culture medium containing 27.5 mM glucose plus 150 μM albumin-bound specific fatty acids or AICAR, washed twice with 2 ml Ca2+- and Mg2+-free phosphate-buffered saline, and lysed with Passive lysis buffer (Promega). Firefly luciferase and renilla (sea pansy) luciferase activities were measured sequentially using a Dual-Luciferase Reporter assay system (Promega) and a model TD-20E Luminometer (Turner Design, Sunnyvale, Calif.). After measuring the firefly luciferase signal and the renilla luciferase signal, the index of relative luciferase activity, indicating L-PK transcription activity, was calculated according to manufacturer's instructions (Promega).
# [10] = system: cultured hepatocytes; assay: AMP, ADP, ATP assays in cultured hepatocytes; assay type: cell-based, rat; conditions: hepatocytes 12 h with 150 µM fatty acid, mean±S.E., n=4
# Method: Hepatocytes were scraped and collected directly into 0.5 ml of ice-cold 6% (v/v) HClO4. The concentrations of ADP and ATP were determined enzymatically in the acid-extract with methods described (Kawaguchi, T., Veech, R. L., and Uyeda, K. (2001) J. Biol. Chem. 276, 28554-28561), and the cytosolic AMP was calculated by the method of Veech et al. (Veech, R. L., Lawson, J. W., Cornell, N. W., and Krebs, H. A. (1979) J. Biol. Chem. 254, 6538-6547).
# Values are expressed as mean±S.E. (n=4).
# [11] = Mono Q purified enzyme, 50 μM Xu-5-P
# T5 sequence (P63331 whole entry): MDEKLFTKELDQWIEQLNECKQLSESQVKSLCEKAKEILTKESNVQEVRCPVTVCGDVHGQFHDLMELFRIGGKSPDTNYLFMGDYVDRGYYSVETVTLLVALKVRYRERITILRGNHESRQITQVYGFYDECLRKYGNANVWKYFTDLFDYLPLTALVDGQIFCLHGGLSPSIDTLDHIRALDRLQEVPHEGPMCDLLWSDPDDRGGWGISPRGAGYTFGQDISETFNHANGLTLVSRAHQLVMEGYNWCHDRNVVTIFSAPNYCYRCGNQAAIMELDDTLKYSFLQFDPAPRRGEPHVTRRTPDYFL
# T5 sequence (P56932 whole entry partner): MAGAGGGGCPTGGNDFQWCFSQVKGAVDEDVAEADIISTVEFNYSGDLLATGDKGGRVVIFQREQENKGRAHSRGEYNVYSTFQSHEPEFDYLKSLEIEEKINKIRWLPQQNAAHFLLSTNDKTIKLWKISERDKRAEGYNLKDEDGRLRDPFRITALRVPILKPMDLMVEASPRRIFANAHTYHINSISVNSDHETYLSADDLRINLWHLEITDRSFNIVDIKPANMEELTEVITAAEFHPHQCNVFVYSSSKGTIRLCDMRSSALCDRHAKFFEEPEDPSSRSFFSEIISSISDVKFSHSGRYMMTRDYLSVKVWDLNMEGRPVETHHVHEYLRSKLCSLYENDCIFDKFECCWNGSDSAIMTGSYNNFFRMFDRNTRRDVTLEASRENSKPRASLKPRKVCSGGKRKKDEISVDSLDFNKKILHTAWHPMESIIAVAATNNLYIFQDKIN
# T5 sequence (Q5XI34 1-589 partner): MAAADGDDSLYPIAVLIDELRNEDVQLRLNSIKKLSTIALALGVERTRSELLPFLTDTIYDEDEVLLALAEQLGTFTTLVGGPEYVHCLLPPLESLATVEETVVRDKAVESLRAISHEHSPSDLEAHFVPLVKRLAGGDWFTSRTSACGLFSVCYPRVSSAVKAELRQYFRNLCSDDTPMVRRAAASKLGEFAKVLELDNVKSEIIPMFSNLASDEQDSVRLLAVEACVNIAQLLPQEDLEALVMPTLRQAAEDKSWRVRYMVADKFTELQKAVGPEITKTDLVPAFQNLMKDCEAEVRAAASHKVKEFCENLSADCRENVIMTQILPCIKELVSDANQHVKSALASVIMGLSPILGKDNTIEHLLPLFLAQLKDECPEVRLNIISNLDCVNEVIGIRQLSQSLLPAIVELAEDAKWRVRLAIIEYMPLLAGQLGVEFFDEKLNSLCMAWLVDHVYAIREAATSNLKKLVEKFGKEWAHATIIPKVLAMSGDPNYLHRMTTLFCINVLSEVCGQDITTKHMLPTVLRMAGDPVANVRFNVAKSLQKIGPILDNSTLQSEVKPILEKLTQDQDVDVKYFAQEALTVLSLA
# T4 sequence (P63331 whole entry): as the sequence (P63331 whole entry) above
# T4 sequence (P56932 whole entry partner): as the sequence (P56932 whole entry partner) above
# T4 sequence (Q5XI34 1-589 partner): as the sequence (Q5XI34 1-589 partner) above
# Chain of ChREBP (Carbohydrate Response Element Binding Protein) from rat liver (rat) (Q8VIP2 whole entry): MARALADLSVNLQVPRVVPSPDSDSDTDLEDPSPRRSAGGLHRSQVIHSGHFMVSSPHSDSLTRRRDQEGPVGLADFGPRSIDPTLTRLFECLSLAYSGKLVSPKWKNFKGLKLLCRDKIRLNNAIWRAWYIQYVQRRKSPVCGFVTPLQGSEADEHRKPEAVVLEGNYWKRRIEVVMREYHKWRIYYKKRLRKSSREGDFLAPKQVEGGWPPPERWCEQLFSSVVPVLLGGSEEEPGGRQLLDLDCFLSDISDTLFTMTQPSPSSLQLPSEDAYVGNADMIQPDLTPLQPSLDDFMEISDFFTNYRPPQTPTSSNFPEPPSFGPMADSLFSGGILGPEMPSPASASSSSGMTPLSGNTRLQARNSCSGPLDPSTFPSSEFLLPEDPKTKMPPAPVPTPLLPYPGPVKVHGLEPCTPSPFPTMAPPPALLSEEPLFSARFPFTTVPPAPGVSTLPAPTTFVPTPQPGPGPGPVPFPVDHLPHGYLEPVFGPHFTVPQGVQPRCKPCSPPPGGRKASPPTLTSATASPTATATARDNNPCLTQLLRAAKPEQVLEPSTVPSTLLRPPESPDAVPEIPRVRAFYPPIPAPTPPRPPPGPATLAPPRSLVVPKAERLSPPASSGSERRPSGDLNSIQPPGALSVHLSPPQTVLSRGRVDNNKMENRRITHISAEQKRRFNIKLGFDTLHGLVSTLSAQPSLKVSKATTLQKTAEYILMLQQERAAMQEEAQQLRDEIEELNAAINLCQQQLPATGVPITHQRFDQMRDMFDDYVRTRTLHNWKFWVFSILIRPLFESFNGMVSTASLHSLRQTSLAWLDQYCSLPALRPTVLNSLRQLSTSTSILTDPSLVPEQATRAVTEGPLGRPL
compound,measurement,setting,value
COc1cccc(-c2cc(=O)c3ccccc3o2)c1N [PD98059],transcriptional activity of the L-PK gene in ChREBP-overexpressed hepatocytes,[1],did not affect
"cytosolic Xu-5-P activated PPase (Mono Q purified, rat liver)","PPase activity (units/mg), +Xu5P (50 µM)",[2],11 units/mg
same,"PPase activity (units/mg), no Xu-5-P",[2],6 units/mg
same,"PPase activity (units/mg), +Xu5P (50 µM)",[3],8.8 units/mg
same,"PPase activity (units/mg), no Xu-5-P",[3],5.2 units/mg
same,"PPase activity (units/mg), +Xu5P (50 µM)",[4],11.2 units/mg
same,"PPase activity (units/mg), no Xu-5-P",[4],6.2 units/mg
CC1(C)[C@H](C(=O)O[C@H](C#N)c2cccc(Oc3ccccc3)c2)[C@@H]1C=C(Br)Br [deltamethrin],inhibition of cytosolic Xu-5-P activated PPase (in words),[5],did not affect
same,inhibition of nuclear PPase (in words),[6],not affected
O=S(=O)(NCCNC/C=C/c1ccc(Br)cc1)c1cccc2cnccc12 [H-89],effect on endogenous ChREBP (L-PK transcriptional activity),"[1]; 10 μM H-89, hepatocytes without ChREBP overexpression",stimulated
same,transcriptional activity of the L-PK gene in ChREBP-overexpressed hepatocytes,[1],increased
same,nuclear staining rate of GFP-fused ChREBP,"[7]; 5.5 mM glucose, 10 μM H-89",increased
catalytic subunit of cAMP-dependent protein kinase (PKA) (enzyme),reduction in DNA-binding activity of ChREBP after phosphorylation (gel shift),[8],90%
"NC(=O)c1ncn([C@@H]2O[C@H](COP(=O)(O)O)[C@@H](O)[C@H]2O)c1N [AICAR, 5-amino-4-imidazolecarboxamide ribotide]",inhibition of glucose activation of L-PK gene transcription,[9]; AICAR 50 μM,approximately 80%
same,inhibition of glucose activation of L-PK gene transcription,[9]; AICAR 200 μM,over 90%
O=C(CO)[C@@H](O)[C@H](O)COP(=O)(O)O [Xu-5-P],extent of activation of cytosolic PPase by Xu-5-P,[5]; [11],1.8 fold
same,activation of P1 dephosphorylation by PPase of desalted cytosolic liver extract,[5]; only metabolite among glycolysis and pentose shunt intermediates examined,able to activate
same,extent of activation of nuclear PPase by Xu-5-P,[6]; [11],1.8 fold
same,"activation of nuclear PPase, P3 peptide substrate","[6]; crude nuclear extract, added Xu-5-P",activated
same,"activation of nuclear PPase, P4 peptide substrate",[6]; nuclear extract,activated
"P3 peptide: synthetic peptide, amino acids #655-674 of ChREBP, VDNNKMENRRITHISAEQKR, phosphorylated by PKA (also: phosphorylated by PKA, site not given here)","Cytosol. PPase activity, +Xu5P",[5]; 50 μM Xu-5-P,11.0 units/mg
same,"Cytosol. PPase activity, None",[5],6.0 units/mg
same,"Nuclear PPase activity, +Xu5P",[6]; 50 μM Xu-5-P,0.94 units/mg
same,"Nuclear PPase activity, None",[6],0.52 units/mg
CN([C@@H](Cc1ccc(OS(=O)(=O)c2cccc3cnccc23)cc1)C(=O)N1CCN(c2ccccc2)CC1)S(=O)(=O)c1cccc2cnccc12 [KN-62],transcriptional activity of the L-PK gene in ChREBP-overexpressed hepatocytes,[1],did not affect
CC(=O)O [acetate],AMP,[10],910 ± 87 nmol/g cells
O=c1c(-c2ccc(O)cc2)coc2cc(O)cc(O)c12 [Genistein],transcriptional activity of the L-PK gene in ChREBP-overexpressed hepatocytes,[1],did not affect
CC1(C(=O)O)C2CCC(O2)C1(C)C(=O)O (centres unmarked) [cantharidic acid],inhibition of cytosolic Xu-5-P activated PPase (in words),[5],completely
same,inhibition of nuclear PPase (in words),[6],completely inhibited
same,transcriptional activity of the L-PK gene in ChREBP-overexpressed hepatocytes,[1],inhibited
same,nuclear staining rate of GFP-fused ChREBP,"[7]; 500 nM cantharidic acid, 5.5 or 27.5 mM glucose",significantly decreased
"P1 peptide: synthetic peptide, amino acids #187-201 of ChREBP, YYKKRLRKSSREGDF, phosphorylated by PKA (also: phosphorylated by PKA, site not given here)","Cytosol. PPase activity, +Xu5P",[5]; 50 μM Xu-5-P,11.2 units/mg
same,"Cytosol. PPase activity, None",[5],6.2 units/mg
same,"Nuclear PPase activity, +Xu5P",[6]; 50 μM Xu-5-P,0.93 units/mg
same,"Nuclear PPase activity, None",[6],0.55 units/mg
"nuclear Xu-5-P activated PPase (Mono Q purified, rat liver)","PPase activity (units/mg), +Xu5P (50 µM)",[2],0.94 units/mg
same,"PPase activity (units/mg), no Xu-5-P",[2],0.52 units/mg
same,"PPase activity (units/mg), +Xu5P (50 µM)",[3],0.67 units/mg
same,"PPase activity (units/mg), no Xu-5-P",[3],0.39 units/mg
same,"PPase activity (units/mg), +Xu5P (50 µM)",[4],0.93 units/mg
same,"PPase activity (units/mg), no Xu-5-P",[4],0.55 units/mg
